B1: AHAS-WT (rice acetohydroxyacid synthase) (Oryza sativa Japonica Group; DEL548-548) (protein)
chain: TPLRPWGPAEPRKGADILVEALERCGVSDVFAYPGGASMEIHQALTRSPVITNHLFRHEQGEAFAASGYARASGRVGVCVATSGPGATNLVSALADALLDSVPMVAITGQVPRRMIGTDAFQETPIVEVTRSITKHNYLVLDVEDIPRVIQEAFFLASSGRPGPVLVDIPKDIQQQMAVPVWDTSMNLPGYIARLPKPPATELLEQVLRLVGESRRPILYVGGGCSASGDELRWFVELTGIPVTTTLMGLGNFPSDDPLSLRMLGMHGTVYANYAVDKADLLLAFGVRFDDRVTGKIEAFASRAKIVHIDIDPAEIGKNKQPHVSICADVKLALQGLNALLQQSTTKTSSDFSAWHNELDQQKREFPLGYKTFGEEIPPQYAIQVLDELTKGEAIIATGVGQHQMWAAQYYTYKRPRQWLSSAGLGAMGFGLPAAAGASVANPGVTVVDIDGDGSFLMNIQELALIRIENLPVKVMVLNNQHLGMVVQEDRFYKANRAHTYLGNPECESEIYPDFVTIAKGFNIPAVRVTKKSEVRAAIKKMLETPGPYLLDIIVPHQEHVLPMIPSGGAFKDMILDGDGRTVY
notes: mature AHAS, N-terminal 59-residue signal (transit) peptide removed; pGEX4T2, E. coli Rosetta; GST tag cut by thrombin; 64 kDa; WT mainly dimer (128 kDa), small tetramer peak (256 kDa); deletion mutant dimer only
B2: AHAS-WT (rice acetohydroxyacid synthase) (Oryza sativa Japonica Group) (protein)
chain: TPLRPWGPAEPRKGADILVEALERCGVSDVFAYPGGASMEIHQALTRSPVITNHLFRHEQGEAFAASGYARASGRVGVCVATSGPGATNLVSALADALLDSVPMVAITGQVPRRMIGTDAFQETPIVEVTRSITKHNYLVLDVEDIPRVIQEAFFLASSGRPGPVLVDIPKDIQQQMAVPVWDTSMNLPGYIARLPKPPATELLEQVLRLVGESRRPILYVGGGCSASGDELRWFVELTGIPVTTTLMGLGNFPSDDPLSLRMLGMHGTVYANYAVDKADLLLAFGVRFDDRVTGKIEAFASRAKIVHIDIDPAEIGKNKQPHVSICADVKLALQGLNALLQQSTTKTSSDFSAWHNELDQQKREFPLGYKTFGEEIPPQYAIQVLDELTKGEAIIATGVGQHQMWAAQYYTYKRPRQWLSSAGLGAMGFGLPAAAGASVANPGVTVVDIDGDGSFLMNIQELALIRIENLPVKVMVLNNQHLGMVVQWEDRFYKANRAHTYLGNPECESEIYPDFVTIAKGFNIPAVRVTKKSEVRAAIKKMLETPGPYLLDIIVPHQEHVLPMIPSGGAFKDMILDGDGRTVY
notes: as for B1

Substrate: CC(=O)C(=O)O
Experiment: acetolactate to acetoin, creatine/naphthol colorimetric A525, Michaelis-Menten
Assay type: biochemical, Oryza sativa
Details: pH 7.5 phosphate, 10 mM MgCl2, 20 uM FAD, 1 mM thiamine pyrophosphate, 37 °C, no herbicide
From the text: acetolactate to acetoin, creatine/naphthol colorimetric A525, Michaelis-Menten on AHAS-WT (rice acetohydroxyacid synthase)

Row | Protein | Km [mM] | kcat [s⁻¹] | kcat/Km [M⁻¹ s⁻¹]
1 | B1 | 9.4 ± 0.4 | 6.6 ± 0.5 | 700 ± 50
2 | B2 | 9.2 ± 0.4 | 6.7 ± 0.3 | 710 ± 30

From article PMC7072996, “Engineering Herbicide-Tolerance Rice Expressing an Acetohydroxyacid Synthase with a Single Amino Acid Deletion” (International Journal of Molecular Sciences, 2020)
